Results published in US20240158489A1 (published 2024).
Each block holds one binder with its values, some of them ahead of it.

Assays:
Assay in all cases: -; FIG. 2B
[1] = target: T1, rabbit ANG2 (rabbit, UniProt G1T9B3 19-496)
T1 chain: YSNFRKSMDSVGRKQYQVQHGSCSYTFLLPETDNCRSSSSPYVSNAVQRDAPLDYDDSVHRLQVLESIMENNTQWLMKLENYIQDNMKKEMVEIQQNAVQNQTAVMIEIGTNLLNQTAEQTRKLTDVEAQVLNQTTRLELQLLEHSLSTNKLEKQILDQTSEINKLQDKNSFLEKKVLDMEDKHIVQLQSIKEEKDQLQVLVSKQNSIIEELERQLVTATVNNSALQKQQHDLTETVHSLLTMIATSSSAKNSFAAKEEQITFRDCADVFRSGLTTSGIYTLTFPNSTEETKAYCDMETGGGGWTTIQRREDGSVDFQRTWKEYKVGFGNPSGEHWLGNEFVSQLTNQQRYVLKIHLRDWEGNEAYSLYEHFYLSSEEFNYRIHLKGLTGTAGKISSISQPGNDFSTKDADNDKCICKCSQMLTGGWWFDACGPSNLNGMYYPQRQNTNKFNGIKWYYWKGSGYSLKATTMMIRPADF

[2] = target: T2, rat ANG2 (rat, UniProt O35462 19-496)
T2 chain: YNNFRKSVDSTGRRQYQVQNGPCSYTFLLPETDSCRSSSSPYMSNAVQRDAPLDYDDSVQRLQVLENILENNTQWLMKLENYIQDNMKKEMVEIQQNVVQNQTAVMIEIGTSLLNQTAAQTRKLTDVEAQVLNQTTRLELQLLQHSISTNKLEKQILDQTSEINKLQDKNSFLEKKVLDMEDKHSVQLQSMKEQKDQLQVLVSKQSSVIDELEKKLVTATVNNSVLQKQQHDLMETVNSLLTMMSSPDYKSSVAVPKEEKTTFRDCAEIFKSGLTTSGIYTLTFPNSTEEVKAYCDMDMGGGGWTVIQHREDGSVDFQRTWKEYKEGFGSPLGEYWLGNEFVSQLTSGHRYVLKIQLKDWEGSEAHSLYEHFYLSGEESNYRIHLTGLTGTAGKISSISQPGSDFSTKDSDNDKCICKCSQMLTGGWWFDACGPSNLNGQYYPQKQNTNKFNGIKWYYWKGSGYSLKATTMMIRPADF

[3] = target: Rat VEGF164
[4] = target: Rabbit VEGF 165
[5] = target: Cyno ANG-2 (monkey)

Kd [1]: 30.4 nM
Kd [2]: 40.5 nM
B1: anti-ANG-2×VEGF bispecific antibody ABP201 (bispecific antibody)
heavy: EVQLLESGGGLVQPGGSLRLSCAASGFTFSWYEMYWVRQAPGKGLEWVSSISPSGGWTMYADSVKGRFTISRDNSKNTLYLQMNSLRAEDTAVYYCATPLYSSDYLSAGDIWGQGTMVTVSSASTKGPSVFPLAPSSKSTSGGTAALGCLVKDYFPEPVTVSWNSGALTSGVHTFPAVLQSSGLYSLSSVVTVPSSSLGTQTYICNVNHKPSNTKVDKRVEPKSCDKTHTCPPCPAPEAAGGPSVFLFPPKPKDTLMISRTPEVTCVVVDVSHEDPEVKFNWYVDGVEVHNAKTKPREEQYNSTYRVVSVLTVLHQDWLNGKEYKCKVSNKALPAPIEKTISKAKGQPREPQVYTLPPSREEMTKNQVSLTCLVKGFYPSDIAVEWESNGQPENNYKTTPPVLDSDGSFFLYSKLTVDKSRWQQGNVFSCSVMHEALHNAYTQKSLSLSPGKGGGGSGGGGSEIVLTQSPGTLSLSPGERATLSCRASQSITGSYLAWYQQKPGQAPRLLITGASSWATGIPDRFSGSGSGTDFTLTISRLEPEDFAVYYCQQYSSSPITFGCGTRLEIKGGGGSGGGGSGGGGSGGGGSQVQLVESGGGVVQPGRSLRLSCAASGFTFTNYGMHWVRQAPGKCLEWVAVISHEGNNKYYVDSVKGRFTISRDNSKNTLYLQMNSLRAEDTAVYYCAREGIDFWSGLNWFDPWGQGTLVTVS
light: EIVLTQSPATLSLSPGERATLSCRASQSVHSSYLAWYQQKPGQAPRLLIYGASSRATGIPDRFSGSGSGTDFTLTISRLEPEDFAVYYCQQSYRTPSFGQGTRLEIKRTVAAPSVFIFPPSDEQLKSGTASVVCLLNNFYPREAKVQWKVDNALQSGNSQESVTEQDSKDSTYSLSSTLTLSKADYEKHKVYACEVTHQGLSSPVTKSFNRGEC

Kd [3]: 0.62 nM
Kd [4]: 2.06 nM
Kd [5]: 29.8 nM
B2: ABP 201 (bispecific antibody)
heavy: B1 heavy
light: B1 light
